According to the DeepSol protein solubility set:

assay: soluble on expression in E. coli; label from the status in PepcDB or PDB records

Q: With “MAEKLNFEELNSMQRYSQFAVFRAIPGALGSDRAEIVAQAQSFFDGLETAGKVEVRGIYDLAGCRAEADFMIWWIAEEFEEIQAAFARFRRETVLGQVSEVAWLGNSLHRPAEFNRSHLPSFIMGEIPGDWITVYPFVRSYDWYIMDPQKRRKILAEHGQAARDFPDVRANTVPAFALGDYEWMLAFEAPRLDRIVDLMHKMRYTEARLHVREETPFFTGRRVSEVSELVNVLP” as the sequence, how does the “soluble on expression in E. coli” value read?
A: not soluble

Q: With “MSTLRLLISDSYDPWFNLAVEECIFRQMPATQRVLFLWRNADTVVIGRAQNPWKECNTRRMEEDNVRLARRSSGGGAVFHDLGNTCFTFMAGKPEYDKTISTSIVLNALNALGVSAEASGRNDLVVKTVEGDRKVSGSAYRETKDRGFHHGTLLLNADLSRLANYLNPDKKKLAAKGITSVRSRVTNLTELLPGITHEQVCEAITEAFFAHYGERVEAEIISPNKTPDLPNFAETFARQSSWEWNFGQAPAFSHLLDERFTWGGVELHFDVEKGHITRAQVFTDSLNPAPLEALAGRLQGCLYRADMLQQECEALLVDFPEQEKELRELSAWMAGAVR” as the sequence, how does the “soluble on expression in E. coli” value read?
A: soluble

Q: Which “soluble on expression in E. coli” value does the source give for “MSLSDTHIPLPERLRPRDLSEIIGQDHLLGEHAPLRQMIDQGHLPSIIFWGPPGVGKTTIALLLAQAVDRPFVSLSALNTGVKELREIIAESGDLLTPVVFIDEIHRFNKSQQDALLNAVEKGKITLIGATTENPSFEVNSALLSRCQVYTLNVLDSAAIQNLIDRAIDSDSFLKQRHIHIEEYEALIQFAAGDARKALNLIDLIASTFEPDQENIVTNAVTVKVAQQNIARYDKSGEQHYDIISAFIKSIRGSDPDAALYWMARMIKGGEDPVFIARRMLIAASEDIGNSNPNALLLAGECFRSVQAVGMPEARIILGQCAVYLATSPKSNSTYLAIDRALALAEKTANLPVPLHLRNAPTKLMKQQGYGADYLYPHHYPEHFVLQEYLPPELKGTKLYEFSRNKREVEGERLQQRRWQQDQEGHHHHHH” here?
A: soluble

Q: With “MSAPKRPKFSVGDIVVNTLYGTVGTITDIQQIDGTFLYEINHGHSLFAEQALILLSEFAGDLWIAEEIEIELPFFLGEIVRVRDYGGHLFKIVGVRTEIYRYYGEGWEETIYELKRLTDGWEIEVHLEDIIPLADGEETSVTLVQDIVIAAPVKASLLLPPADSGEKGPSVDELLDMYNDYKALYEWFGDEQYQRMMETVVKRLRTISDHQDRN” as the sequence, how does the “soluble on expression in E. coli” value read?
A: not soluble

Q: For “MNNQQAAIASARSRMAAGGQPQGATPGQPDQNFDYMFKLLIIGNSSVGKTSFLFRYCDDSFTSAFVSTVGIDFKVKTVFRGDKRVKLQIWDTAGQERYRTITTAYYRGAMGFILMYDITNEESFNSVQDWCTQIKTYSWENAQVVLVGNKCDMDSERVVSMDRGRQLADQLGLEFFETSAKENINVKAVFEKLVEIICDKMAESLDKDPQQQPKGQKLEANPTQKPAQQQCNC”, which “soluble on expression in E. coli” value is on record?
A: not soluble

Q: With “MDAKHIEKVFVKKVPAKSNKAQVKYPFDENSVNVLIIGLDKASNRSTYDLHRTDTILFLNINFKDKKVKGISIPRDTLTEIYKVGKWDKINSAFGYGGGEKEEGFFYTMETVSKLLGGMPIEYYVGFDLDAVRKVVNILGGVYVNVEVPVKVKTKWVNIDLKPGYQKLNGIETLYYALWRKTPGGDIDRIKRDKELILSVFEQLKESNKIITLPEIYWKIRRHFYTNLSLQQITSLAYFAQNMKKEDIVFESIPGDYFNYMGVSYWKPDYEGIKKLVKDLFGYDIEIDLKMPEKYKYARRIIVKAKKENNISYSHTNKSYSTESSQNQNSQSNSEVNLVQKQTETIENSTQSSSPFDAQWRNSSEDTQTLPPENDSQTTQGTQQQQATTESEIQVDTPSTSSDVVSNVYGGRLEHHHHHH” as the sequence, how does the “soluble on expression in E. coli” value read?
A: soluble

Q: With “MGSDKIHHHHHHMIITTALANEIVARAMAIIHHNVNVIDHHGQIIASGERHRIGEQHEVAREVIRTGKRICINNAAEAARFHNVHPGINHPIIYDDRVVMVVGISGDPAAISRYAELAVLTAELLVRQAIEMRETNWRQRLRDTLFCQYLEQGATPAGQEALHRLLELGFDFDTPRVPIVVTVQVEQHQLSDILSTLLREFSQLSGVSDVILLGSHEILILNALSEAQETLLRGIEFVLSNQISHYHIGIGVQADSAPDIREAIRFARSVIEVGSKVQPQRQIYYFREMAMLCLFRVLEDSYMVNFFINNVRQLLEHDSGEVLLDTLSSFIANNAEPGKTSLLLGIHRNTLTYRLQQIKKHIQLDPMVFTDLTQLAVSVHCYRRLNPRQSEWIDSLS” as the sequence, how does the “soluble on expression in E. coli” value read?
A: not soluble

Q: Which “soluble on expression in E. coli” value does the source give for “MGHHHHHHSHMPDNHKDPPDFNNLEMKLEERIELSREDQDIQSTSSSYPHCEALDHIVSMESTYDFHRQMAHKDLQKHRQEYEKASEKILELRKKLTDWNMDPKKRKWIEDDLDSLVRKQESALSRIRLAEKCTKRDLRNDPPPAYQPDDPLKDLRKNFEKKEKPTWNDVEKKKNGVFEFH” here?
A: not soluble

Q: For “MGSDKIHHHHHHMAIRSSVLALCVATLLTGCQNLNTNTLMQSGAQAFQAATLSDAQVKALSDQSCEQMDKEAKIAPADSKYTQRLNKIADALGHDINGTPANYKVYLEKDVNAWAMANGCIRVYSGLMDMMNDNEVEGVLGHEMGHVALGHTRKAMQVAYAATAARTAIASAGGVAASLSQSQLADLGEKLVNSQFSQSQESQADDYSFDLLKKRGINREGLASSFEKLAKLDASHESSMFDSHPSSEGRAKHIRERITAEK”, which “soluble on expression in E. coli” value is on record?
A: not soluble

Q: With “MSLKITHVEVHRIDVPAASPPFRWRDGLSGSAPVGDGAVLHIGTDEGAEGVSVFARPGAYSTLRDLVDRVFRAELVGADPFQREWLWHRVWELDRIHELPLPTLGLIDIALWDLAGRYHGEPVWRLLGGFREAIPAYASTSTFSSVAEFLDVADQCLALGYRGIKLHAWGDARRDAELCLALRDHVGPDVPLMYDGSAGFDLPDAIRLGRALSEADYLWYEEPIREFSISAYQRLAEAVDVPLLVAETSDGAHMNAADFIRAGAATFGVRAGTTLRGGITGAMRTAHLADAFRLRAEVHGSDIPNHHLCMAISNTTYYESLVTSVNVVRERHVDDQGLVHAPAGPGIALPLDFGYGNELLPFVEQPREGHHHHHH” as the sequence, how does the “soluble on expression in E. coli” value read?
A: soluble

Q: For “MGSDKIHHHHHHMSQDVPGNLLDEIRILRSPKGYLYAGLPKFRALFGRDSIISSIQLIDLFPDIAQNTVIYLKDLQGRKLDYSIGEYPGKILHEYYDDEKIFLDRKRSIPWLNSRINYFSVDSTPLFILLIKNLFLRNLIDIEQFKDSIMMAMQFLIAYSSSDGLITYDKALLGAGLMSQSWRDGVGDIMDRLKSPVATVGVQGYFYESADFVLNLFPDSLIEESLPDLKDFYSKMREILENKFWLEETGYYGLAVDGDGVIEQAATSDPGHLIGSGILTRSRERDVIDRLFESDLLTDYGIRTLSAKDPRFDPKAYQRGSIWPQDNWIIADGIKRRGYLKEYRELRERLIAAYEYYGRMPEYFGVDRYGKIMDLSKLRIKPCYPQAWSTGAIINFVTFK”, which “soluble on expression in E. coli” value is on record?
A: not soluble

Q: For “GEAQERQTDDGIAAFCRHLGELCDLLNAPYDDVNALAHLARAGELQGTNVNLLLHNAFYHWLGERVQLSVAESRDVAPETIAAHAREAALAQIQSGEYVSQFVTAVAAHATQNVDGVQGPVAPTKQSLFDLPGHFELLGPDEVDGLLKDLASSDCPVGALEKLVADPHLLEDLCFGPTWPQLCDSLGRLVCLLPPSGGTQAAVTGAGHHQHGHTRAAAAVGGGAGRAAASVPEMPKQQQLLLQALNEVVSAVAASSPPHAAELLDGLAPYLTALALRLSLPLPGAGTGHATPVAPDQLQTRVQAGMAGPGAGAGDGGPGGVAVVGTGAVGLLVAVTARDA”, which “soluble on expression in E. coli” value is on record?
A: not soluble

Q: For “MRLNLRQLQIFCAITRFGSTTSAGNALALSQSATSAALNELEGALGTRLFDRVGKRLVLNDSGQSLLPRAMKMLENAQQIEDSFLLPDTTLNARLRIGSSSTIGNYELPSIVGALRESAPLLRVDVDIGNSALIARKVARFEIVMGLIEAPCHLPELIAEPWSVDEMVIVAGINHPLARQKQVSLGELQDAEWLLREPGSGTREEVEHLLLRHLHDLQDLREIGSSEAIKRTLAQGIGISCLSRRVVADLLASGQLKALASPLPPLNRRFFMIRHRDKFISPSLERFREACRQATDQAATLRHGLSHNASPTSSTTP”, which “soluble on expression in E. coli” value is on record?
A: not soluble

Q: Which “soluble on expression in E. coli” value does the source give for “QDSTSDLIPAPPLSKVPLQQNFQDNQFHGKWYQVGRAGNAALREDKDPQKMTAQIYELKEDKSYNVTAVRFRKKKCDYATMTFVPGSQPGEFTLGNIKSYPGLTSYLVRVVSTNYNQHAMVFFKKVSQNREYFSITLLGRTKELASELKENFIRFSKSLGLPENHIVFPVPIDQCIDGSAHHHHHH” here?
A: soluble

Q: For “MSEVESQQSQETNGSSKFDVPEIELIIKASTIDGRRKGACLFCQEYFMDLYLLAELKTISLKVTTVDMQKPPPDFRTNFEATHPPILIDNGLAILENEKIERHIMKNIPGGYNLFVQDKEVATLIENLYVKLKLMLVKKDEAKNNALLSHLRKINDHLSARNTRFLTGDTMCCFDCELMPRLQHIRVAGKYFVDFEIPTHLTALWRYMYHMYQLDAFTQSCPADQDIINHYKLQQSLKMKKHEELETPTFTTYIPIDISE”, which “soluble on expression in E. coli” value is on record?
A: soluble

Q: With “MRTATSTSPATGTPAPVPSRTPDVTVTVIVYNDAGRLPRAVASALRQSHANIEVVISDDHSTDATEEVARELAAHDPRVVYLRLPENSGGCSAPRNRALEIARAPYLMFLDSDDELPERAVEVLLAAHRERDLDFAMGAVHRIREDGGRRTTWMPHLVAERRTLDGIEADPRLLFEHLSTSKMYARAFLDRHGLRFPEGIHYEDQLFSAQAYCLAKTFTVVPEPVYRWYIAPYADADSASISNQRHKLTNVRDRVHVQRLIDAFLAESGHEALREDKDFKFLKHDFRMYAGDLPYRDDTWLASFADLMNPYLDTLAEGAYARLPRAERVVLRLLRDRRLSDVRTAARGLGHDVAPRRVTPDEQSGRVYWGEEVPASPESRRELDLTDLDLDTRPFFTALLRHEITEITRGPGASVDLTVRTYDPALRLPVGPQRAVLHLSPGPRRLTVPFRLSPVRPGLFEGRVRLDLAAARLPLHGFAGTRHPVLRLRHRGRTHTGILLAPLAFPPLTARVPYRTGLTPHRVTLRPEGHNPGRLQITWQPVGTTAKILGPAARRLSTPRTRRAARLLSNILRLEHHHHHH” as the sequence, how does the “soluble on expression in E. coli” value read?
A: soluble

Q: With “KTMLKIKMAEDAEMIDEVVVTALGIKREEKALGYAVQKVGGSKLSTVKPVNIATSLTGKVAGLNVTNSTEFNTAPTLKLRGETPLLVVDGVPYSNISLNDIAADDIESVDVLKGATASALYGARGGSGAIMVTTKKGSQEG” as the sequence, how does the “soluble on expression in E. coli” value read?
A: not soluble

Q: For “MSLDFAMLPPEVNSTRMYSGPGAGSLWAAAAAWDQVSAELQSAAETYRSVIASLTGWQWLGPSSVRMGAAVTPYVEWLTTTAAQARQTATQITAAATGFEQAFAMTVPPPAIMANRAQVLSLIATNFFGQNTAAIAALETQYAEMWEQDATAMYDYAATSAAARTLTPFTSPQQDTNSAGLPAQSAEVSRATANAGAADGNWLGNLLEEIGILLLPIAPELTPFFLEAGEIVNAIPFPSIVGDEFCLLDGLLAWYATIGSINNINSMGTGIIGAEKNLGILPELGSAAAAAAPPPADIAPAFLAPLTSMAKSLSDGALRGPGEVSAAMRGAGTIGQMSVPPAWKAPAVTTVRAFDATPMTTLPGGDAPAAGVPGLPGMPASGAGRAGVVPRYGVRLTVMTRPLSGEGHHHHHH”, which “soluble on expression in E. coli” value is on record?
A: soluble

Q: With “MELSADYLREKLRQDLEAEHVEVEDTTLNRCATSFRVLVVSAKFEGKPLLQRHRLVNECLAEELPHIHAFEQKTLTPEQWTRQRRE” as the sequence, how does the “soluble on expression in E. coli” value read?
A: soluble

Q: Which “soluble on expression in E. coli” value does the source give for “MGHHHHHHSHVAQFPTPFGGSLDTWAITVEERAKHDQQFHSLKPISGFITGDQARNFFFQSGLPQPVLAQIWALADMNNDGRMDQVEFSIAMKLIKLKLQGYQLPSALPPVMKQQPVAISS” here?
A: soluble

Q: For “MEEIILVFPKEELEVRAMEFKKEFLDCGERIINGSFKLDYVDDYAEWLKIIRNNLKKETVNPKWVVSTTFFAVRKSDNKIIGIVNLRHYLNDFYKNSGHIGYSVRPSERRKGYASEILRQILEYAREKGLTEVCVVCKKENEASRKTILKNGGILSRTFKDEGEEHEAFYINTKKH”, which “soluble on expression in E. coli” value is on record?
A: not soluble
